Experimental data reported in publication PMC9452514, “Coiled-coil structure of meiosis protein TEX12 and conformational regulation by its C-terminal tip” (Communications Biology, 2022).

B1: TEX12 ΔCtip (amino-acids 49–113) (domain or fragment, human, UniProt Q9BXU0 49-113, looked up)
chain: KDEALEKDLNDVSKEINLMLSTYAKLLSERAAVDASYIDEIDELFKEANAIENFLIQKREFLRQR
notes: TEX12, human, core without the C-terminal tip (deletion of amino-acids 114-123), amino-acids 49-113; Tetramer in the crystal (6HK8); in solution tetramers in concentration-dependent equilibrium with dimers; also called TEX12 ΔCtip (49–113); source: E. coli BL21 (DE3), purified (Ni-NTA, amylose, HiTrap Q HP, TEV cleavage, SEC); not shown: His, N-terminal, cleaved; MBP, N-terminal, cleaved
B2: TEX12 core (amino-acids 49–123) wild-type (domain or fragment, human, UniProt Q9BXU0 49-123, looked up)
chain: KDEALEKDLNDVSKEINLMLSTYAKLLSERAAVDASYIDEIDELFKEANAIENFLIQKREFLRQRFTVIANTLHR
notes: TEX12, human, structural core, amino-acids 49-123; expressed from pMAT11 as a TEV-cleavable His-MBP fusion; also called TEX12 wild-type; WT; source: E. coli BL21 (DE3), purified (Ni-NTA, amylose, HiTrap Q HP, TEV cleavage, SEC); not shown: His, N-terminal, cleaved; MBP, N-terminal, cleaved
B3: TEX12 core (amino-acids 49–123) L110E F114E I117E L121E (LFIL) (domain or fragment, human, UniProt Q9BXU0 49-123, looked up)
chain: KDEALEKDLNDVSKEINLMLSTYAKLLSERAAVDASYIDEIDELFKEANAIENFLIQKREFERQRETVEANTEHR
notes: TEX12, human, structural core, amino-acids 49-123, with glutamate mutations of the Ctip heptad amino-acids; In solution tetramers in concentration-dependent equilibrium with dimers; also called TEX12 LFIL; source: E. coli BL21 (DE3), purified (Ni-NTA, amylose, HiTrap Q HP, TEV cleavage, SEC); not shown: His, N-terminal, cleaved; MBP, N-terminal, cleaved
B4: TEX12 core (amino-acids 49–123) F102A F109E V116A (FFV) (domain or fragment, human, UniProt Q9BXU0 49-123, looked up)
chain: KDEALEKDLNDVSKEINLMLSTYAKLLSERAAVDASYIDEIDELFKEANAIENALIQKREELRQRFTAIANTLHR
notes: TEX12, human, structural core, amino-acids 49-123, with mutations of solvent-exposed residues; both crystal forms (6HK9, 6R2F) show dimers; The introduction gives the FFV of the earlier work as F102A F109A V116A; also called TEX12 FFV; TEX12 (49–123) FFV; source: E. coli BL21 (DE3), purified (Ni-NTA, amylose, HiTrap Q HP, TEV cleavage, SEC); not shown: His, N-terminal, cleaved; MBP, N-terminal, …

How the values were obtained:
[1] = biological target: the molecule itself; test: SEC-MALS; Superdex 200 Increase 10/300 GL, 20 mM Tris pH 8.0, 150 mM KCl, 2 mM DTT; ΔCtip and LFIL loaded at 1 mg/ml after stepwise dilution
[2] = biological target: the molecule itself; test: SEC-SAXS; Superdex 200 Increase 10/300 GL, 20 mM Tris pH 8.0, 150 mM KCl; ΔCtip and LFIL analysed at ~30 mg/ml to minimise dissociation
[3] = biological target: the molecule itself; test: SEC-MALS; Superdex 200 Increase 10/300 GL, 20 mM Tris pH 8.0, 150 mM KCl, 2 mM DTT; wild-type and FFV at >10 mg/ml and at 1 mg/ml; species stable across 1-10 mg/ml
[4] = biological target: the molecule itself; test: SEC-SAXS; Superdex 200 Increase 10/300 GL, 20 mM Tris pH 8.0, 150 mM KCl; samples at >5 mg/ml; beamline B21, Diamond Light Source
[5] = biological target: the molecule itself; test: crystal structure; TEX12 FFV at 43 mg/ml, sitting drops, 200 mM calcium acetate, 40% MPD, 20 °C; C222_(1), 1.45 Å, two chains per asymmetric unit

Row | Protein | stoichiometry N [1] | stoichiometry N [2] | stoichiometry N [3] | stoichiometry N [4] | stoichiometry N [5]
1 | B1 | 2 | 4 |  |  | 
2 | B2 |  |  | 2 |  | 
3 | B3 | 2 | 4 |  |  | 
4 | B4 |  |  |  | 4 | 2
